Results: article PMC5052650, “Characterization of the DNA dependent activation of human ARTD2/PARP2”

Assays:
ARTD2FL [1] = target: T1, ARTD2FL (Homo sapiens, UniProt Q9UGN5 1-583); assay: fluorescence polarization; Kd range 10-63 nM over oligos; 1:1 to 4:1; FP: 10 mM Hepes pH 8.0, 150 mM NaCl, 0.1 mM TCEP, 0.1 mM EDTA, 10% glycerol, 25 C, 5 nM DNA (250 nM for stoichiometry); EMSA: 50 mM Hepes, 300 mM NaCl, 0.1 mM EDTA, 10% glycerol, 0.1 mM TCEP, on ice, 1 uM DNA; SEC-SAXS: 20 mM Hepes pH 7.5, 300 mM NaCl, 5% glycerol; details: protein: recombinant, tags: His6-thioredoxin removed by TEV (QS left), label: fluorescein
T1 sequence (Q9UGN5 whole entry): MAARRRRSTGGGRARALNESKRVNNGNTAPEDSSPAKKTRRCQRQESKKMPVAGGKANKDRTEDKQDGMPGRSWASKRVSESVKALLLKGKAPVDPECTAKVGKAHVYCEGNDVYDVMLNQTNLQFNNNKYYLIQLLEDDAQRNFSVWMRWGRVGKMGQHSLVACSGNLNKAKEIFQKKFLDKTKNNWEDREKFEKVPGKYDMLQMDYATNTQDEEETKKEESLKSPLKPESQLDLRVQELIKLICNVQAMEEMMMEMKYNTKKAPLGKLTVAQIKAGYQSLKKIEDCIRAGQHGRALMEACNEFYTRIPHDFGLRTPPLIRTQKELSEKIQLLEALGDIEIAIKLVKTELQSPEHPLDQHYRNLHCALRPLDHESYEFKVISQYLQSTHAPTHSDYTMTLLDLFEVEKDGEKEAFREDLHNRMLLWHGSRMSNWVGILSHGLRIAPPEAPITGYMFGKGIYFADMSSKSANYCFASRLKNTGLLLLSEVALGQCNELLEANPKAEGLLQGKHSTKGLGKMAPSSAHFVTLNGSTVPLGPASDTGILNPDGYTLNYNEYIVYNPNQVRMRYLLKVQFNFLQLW

ARTD2FL [2] = target: T1, ARTD2FL; assay: EMSA; some free DNA even at 4:1; FP: 10 mM Hepes pH 8.0, 150 mM NaCl, 0.1 mM TCEP, 0.1 mM EDTA, 10% glycerol, 25 C, 5 nM DNA (250 nM for stoichiometry); EMSA: 50 mM Hepes, 300 mM NaCl, 0.1 mM EDTA, 10% glycerol, 0.1 mM TCEP, on ice, 1 uM DNA; SEC-SAXS: 20 mM Hepes pH 7.5, 300 mM NaCl, 5% glycerol; details: protein: recombinant; tags: His6-thioredoxin removed by TEV (QS left); nicked dumbbell, two hairpins, 1 strand
ARTD2WGR+CAT = ARTD2WGR+CAT (Homo sapiens, UniProt Q9UGN5 71-583); assay: EMSA; FP: 10 mM Hepes pH 8.0, 150 mM NaCl, 0.1 mM TCEP, 0.1 mM EDTA, 10% glycerol, 25 C, 5 nM DNA (250 nM for stoichiometry); EMSA: 50 mM Hepes, 300 mM NaCl, 0.1 mM EDTA, 10% glycerol, 0.1 mM TCEP, on ice, 1 uM DNA; SEC-SAXS: 20 mM Hepes pH 7.5, 300 mM NaCl, 5% glycerol; details: protein: recombinant; tags: His6-ZB removed by TEV (QS left); hairpin, blunt
ARTD2WGR+CAT, sequence (Q9UGN5 71-583): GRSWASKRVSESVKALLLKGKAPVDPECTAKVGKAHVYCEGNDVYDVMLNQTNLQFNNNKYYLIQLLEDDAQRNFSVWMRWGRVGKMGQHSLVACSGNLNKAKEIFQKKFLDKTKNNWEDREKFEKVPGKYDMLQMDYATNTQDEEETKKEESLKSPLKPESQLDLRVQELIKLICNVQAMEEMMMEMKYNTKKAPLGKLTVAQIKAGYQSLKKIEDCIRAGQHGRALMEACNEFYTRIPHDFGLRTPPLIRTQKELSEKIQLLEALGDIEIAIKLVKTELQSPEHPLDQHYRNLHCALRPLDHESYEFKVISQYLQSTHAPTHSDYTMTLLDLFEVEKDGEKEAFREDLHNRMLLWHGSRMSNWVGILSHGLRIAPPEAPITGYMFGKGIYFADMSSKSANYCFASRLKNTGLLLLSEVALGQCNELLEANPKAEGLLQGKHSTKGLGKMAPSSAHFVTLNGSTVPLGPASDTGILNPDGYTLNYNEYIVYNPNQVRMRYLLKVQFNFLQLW

ARTD2CAT = ARTD2CAT (Homo sapiens, UniProt Q9UGN5 235-583); assay: as above; details: protein: recombinant; tags: His6 removed by TEV (SM left); hairpin, blunt
ARTD2CAT, sequence (Q9UGN5 235-583): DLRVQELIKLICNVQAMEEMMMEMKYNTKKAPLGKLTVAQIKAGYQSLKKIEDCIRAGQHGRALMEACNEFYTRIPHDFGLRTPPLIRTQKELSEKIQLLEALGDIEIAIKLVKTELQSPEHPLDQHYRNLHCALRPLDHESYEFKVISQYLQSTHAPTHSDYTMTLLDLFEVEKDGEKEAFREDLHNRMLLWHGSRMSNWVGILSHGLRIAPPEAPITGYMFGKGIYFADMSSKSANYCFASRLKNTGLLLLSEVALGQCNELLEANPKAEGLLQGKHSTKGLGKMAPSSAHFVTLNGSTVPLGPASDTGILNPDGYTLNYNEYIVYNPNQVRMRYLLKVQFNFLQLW

ARTD2FL [3] = target: T1, ARTD2FL; assay: EMSA; no free DNA above 2:1; FP: 10 mM Hepes pH 8.0, 150 mM NaCl, 0.1 mM TCEP, 0.1 mM EDTA, 10% glycerol, 25 C, 5 nM DNA (250 nM for stoichiometry); EMSA: 50 mM Hepes, 300 mM NaCl, 0.1 mM EDTA, 10% glycerol, 0.1 mM TCEP, on ice, 1 uM DNA; SEC-SAXS: 20 mM Hepes pH 7.5, 300 mM NaCl, 5% glycerol; details: protein: recombinant; tags: His6-thioredoxin removed by TEV (QS left); hairpin, blunt
ARTD2FL [4] = target: T1, ARTD2FL; assay: fluorescence polarization; affinity similar to oligo 40; FP: 10 mM Hepes pH 8.0, 150 mM NaCl, 0.1 mM TCEP, 0.1 mM EDTA, 10% glycerol, 25 C, 5 nM DNA (250 nM for stoichiometry); EMSA: 50 mM Hepes, 300 mM NaCl, 0.1 mM EDTA, 10% glycerol, 0.1 mM TCEP, on ice, 1 uM DNA; SEC-SAXS: 20 mM Hepes pH 7.5, 300 mM NaCl, 5% glycerol; details: protein: recombinant; tags: His6-thioredoxin removed by TEV (QS left); label: fluorescein
ARTD2FL [5] = target: T1, ARTD2FL; assay: EMSA; no free DNA only after 4:1; FP: 10 mM Hepes pH 8.0, 150 mM NaCl, 0.1 mM TCEP, 0.1 mM EDTA, 10% glycerol, 25 C, 5 nM DNA (250 nM for stoichiometry); EMSA: 50 mM Hepes, 300 mM NaCl, 0.1 mM EDTA, 10% glycerol, 0.1 mM TCEP, on ice, 1 uM DNA; SEC-SAXS: 20 mM Hepes pH 7.5, 300 mM NaCl, 5% glycerol; details: protein: recombinant; tags: His6-thioredoxin removed by TEV (QS left); blunt, palindromic, 2 copies
ARTD2FL [6] = target: T1, ARTD2FL; assay: EMSA; FP: 10 mM Hepes pH 8.0, 150 mM NaCl, 0.1 mM TCEP, 0.1 mM EDTA, 10% glycerol, 25 C, 5 nM DNA (250 nM for stoichiometry); EMSA: 50 mM Hepes, 300 mM NaCl, 0.1 mM EDTA, 10% glycerol, 0.1 mM TCEP, on ice, 1 uM DNA; SEC-SAXS: 20 mM Hepes pH 7.5, 300 mM NaCl, 5% glycerol; details: protein: recombinant; tags: His6-thioredoxin removed by TEV (QS left)
ARTD2FL [7] = target: T1, ARTD2FL; assay: fluorescence polarization; affinity similar to oligo 39; FP: 10 mM Hepes pH 8.0, 150 mM NaCl, 0.1 mM TCEP, 0.1 mM EDTA, 10% glycerol, 25 C, 5 nM DNA (250 nM for stoichiometry); EMSA: 50 mM Hepes, 300 mM NaCl, 0.1 mM EDTA, 10% glycerol, 0.1 mM TCEP, on ice, 1 uM DNA; SEC-SAXS: 20 mM Hepes pH 7.5, 300 mM NaCl, 5% glycerol; details: protein: recombinant; tags: His6-thioredoxin removed by TEV (QS left); label: fluorescein
ARTD2FL [8] = target: T1, ARTD2FL; assay: fluorescence polarization; Kd range 10-63 nM over oligos; binds as monomer (1:1); FP: 10 mM Hepes pH 8.0, 150 mM NaCl, 0.1 mM TCEP, 0.1 mM EDTA, 10% glycerol, 25 C, 5 nM DNA (250 nM for stoichiometry); EMSA: 50 mM Hepes, 300 mM NaCl, 0.1 mM EDTA, 10% glycerol, 0.1 mM TCEP, on ice, 1 uM DNA; SEC-SAXS: 20 mM Hepes pH 7.5, 300 mM NaCl, 5% glycerol; details: protein: recombinant; tags: His6-thioredoxin removed by TEV (QS left); label: fluorescein; hairpin, blunt

B1: oligonucleotide 38 (labelled 18) (dsDNA)
DNA 1: GCCTTAGCGCGTATACGCGCTAAGGC
DNA 2: GCCTTAGCGCGTATACGCGCTAAGGC
modifications: 5'-phosphate
Q: Does B1 bind (ARTD2FL [1]; blunt, palindromic, 2 copies)?
A: binds

Q: Does GGAAGTTCTTTTGAACTTCCTCGAAGCTTTTGCTTCGA (structured_DNA, 5'-phosphate) [oligonucleotide 2] bind (ARTD2FL [2])?
A: binds

Q: Does GGAAGTTCTTTTGAACTTCC (structured_DNA, 5'-phosphate) [oligonucleotide 6] bind (ARTD2WGR+CAT)?
A: binds

Q: Does GGAAGTTCTTTTGAACTTCC (structured_DNA, 5'-phosphate) [oligonucleotide 6] bind (ARTD2CAT)?
A: no binding

Q: Does GGAAGTTCTTTTGAACTTCC (structured_DNA, 5'-phosphate) [oligonucleotide 6] bind (ARTD2FL [3])?
A: binds

B2: oligonucleotide 39 (labelled 19) (dsDNA)
DNA 1: CCAGGACCAGGGCGCAGATCACCTTGTTCTCCA
DNA 2: TGGAGAACAAGGTGATCTGCGCCCTGGTCCTGG
Q: Does B2 bind (ARTD2FL [4])?
A: binds

B3: oligonucleotide 18 (dsDNA)
DNA 1: GCCTTAGCGCGTATACGCGCTAAGGC
DNA 2: GCCTTAGCGCGTATACGCGCTAAGGC
modifications: 5'-phosphate
Q: Does B3 bind (ARTD2FL [5])?
A: binds

B4: oligonucleotide 20 (dsDNA)
DNA 1: B2 DNA 1
DNA 2: B2 DNA 2
modifications: 5'-phosphate
Q: Does B4 bind (ARTD2FL [6])?
A: binds

B5: oligonucleotide 40 (labelled 20) (dsDNA)
DNA 1: B2 DNA 1
DNA 2: B2 DNA 2
modifications: 5'-phosphate
Q: Does B5 bind (ARTD2FL [7])?
A: binds

Q: Does GGAAGTTCTTTTGAACTTCCTCGAAGCTTTTGCTTCGA (structured_DNA, 5'-phosphate) [oligonucleotide 41 (labelled 2)] bind (ARTD2FL [1]; nicked dumbbell, two hairpins, 1 strand)?
A: binds

Q: Does GGAAGTTCTTTTGAACTTCC (structured_DNA, 5'-phosphate) [oligonucleotide 42 (labelled 6)] bind (ARTD2FL [8])?
A: binds
